# ± gives the standard error. For some assays here: This sample holds only a part of the variants without activity.
# B1: glmS ribozyme (parent)
# chain: AUAAAAGCGCCAGAACUACAGAAAUGUAGUUGACGAGGAGGAGGUUUAUCGAAUUUUCGGCGGAUGCCUCCAAA
# Assays:
# Conditions in all cases: with glucosamine-6-phosphate
# glucosamine-6-phosphate [1] = variants of: B1; assay: kcat; higher = faster cleavage; RNA array
# In short: (§1)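 kcat and KM were obtained from weighted Michaelis–Menten fits across concentrations of kobs values. Those came from one- or two-exponential decay fits to per-tile medians normalised to baseline and to non-cleaving reference variants. The variants were barcoded ribozymes transcribed in situ by E. coli RNA polymerase on sequenced MiSeq chips and tracked through a hybridised Cy3 probe at 37 °C, with 40 μM to 10 mM glucosamine-6-phosphate in HEPES/KCl/Mg(OAc)2 buffer flowed in.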
# glucosamine-6-phosphate [2] = variants of: B1; assay: KM; higher = weaker cofactor use; RNA array
# In short: as §1
# glucosamine-6-phosphate [3] = variants of: B1; assay: self-cleavage kobs at 40 uM GlcN6P; higher = faster cleavage; RNA array
# In short: as §1
# glucosamine-6-phosphate [4] = variants of: B1; assay: self-cleavage kobs at 640 uM GlcN6P; higher = faster cleavage; RNA array
# In short: as §1
# glucosamine-6-phosphate [5] = variants of: B1; assay: self-cleavage kobs at 2500 uM GlcN6P; higher = faster cleavage; RNA array
# In short: as §1
# glucosamine-6-phosphate [6] = variants of: B1; assay: self-cleavage kobs at 10000 uM GlcN6P; higher = faster cleavage; RNA array
# In short: as §1
# glucosamine-6-phosphate [7] = variants of: B1; assay: self-cleavage kobs at 160 uM GlcN6P; higher = faster cleavage; RNA array
# In short: as §1
Variant,kcat (glucosamine-6-phosphate [1]) [s⁻¹],KM (glucosamine-6-phosphate [2]) [mM],self-cleavage kobs at 40 uM GlcN6P (glucosamine-6-phosphate [3]) [s⁻¹],self-cleavage kobs at 640 uM GlcN6P (glucosamine-6-phosphate [4]) [s⁻¹],self-cleavage kobs at 2500 uM GlcN6P (glucosamine-6-phosphate [5]) [s⁻¹],self-cleavage kobs at 10000 uM GlcN6P (glucosamine-6-phosphate [6]) [s⁻¹],self-cleavage kobs at 160 uM GlcN6P (glucosamine-6-phosphate [7]) [s⁻¹]
A52U A53U,0.000212 ± 8.7e-06,4.21 ± 0.36,< 1e-05,2.65e-05 ± 1e-05,8.03e-05 ± 1.2e-05,0.000148 ± 1.7e-05,–
G37C A53U,2.09e-05 ± 2.3e-06,–,< 1e-05,–,2.18e-05 ± 9.8e-06,1.92e-05 ± 8.5e-06,–
C34U G35A C68U,1.41e-05 ± 3.1e-06,–,–,–,–,–,–
C50G C70G,0.000103 ± 1.8e-05,–,7.4e-05 ± 7.4e-06,0.000112 ± 1.2e-05,9.3e-05 ± 1e-05,8.05e-05 ± 8.7e-06,0.000142 ± 9.9e-06
U49G U69A,4.14e-05 ± 1.7e-05,–,–,–,8.22e-05 ± 2.2e-05,–,–
U30G U31A,0.0147 ± 0.001,0.914 ± 0.11,0.000631 ± 0.0002,–,–,0.0137 ± 0.0031,–
A15U A64G,0.00706 ± 0.00091,1.99 ± 0.37,0.000142 ± 2.5e-05,0.00182 ± 0.00029,0.00336 ± 0.00058,0.0066 ± 0.001,0.00053 ± 0.0001
U55G U56G,0.0156 ± 0.0072,–,0.000205 ± 3e-05,0.00307 ± 0.00039,0.00561 ± 0.00078,0.0215 ± 0.0038,0.000797 ± 0.00014
G29U A39G,0.0173 ± 0.0026,3.64 ± 0.72,0.000218 ± 4.4e-05,0.00233 ± 0.0004,0.0072 ± 0.0012,0.0129 ± 0.0028,0.000723 ± 0.00021
C16U A39U,0.0586 ± 0.022,9.39 ± 4.2,–,0.00392 ± 0.00055,0.0111 ± 0.0017,0.034 ± 0.0081,0.00114 ± 0.00038
C10U A14G C68G,3.32e-05 ± 9.4e-06,–,–,–,–,–,–
G40C A53C,0.000789 ± 2e-05,2.24 ± 0.11,–,0.000176 ± 2.5e-05,0.0004 ± 6.6e-05,0.000652 ± 7.2e-05,5.46e-05 ± 1.9e-05
C11A C67U,4.14e-05 ± 2.5e-06,–,–,3.1e-05 ± 1.4e-05,3.53e-05 ± 1e-05,4.17e-05 ± 6.9e-06,–
A12U G37A G40C,0.00099 ± 0.00024,4.22 ± 1.4,–,0.000134 ± 1.7e-05,0.000386 ± 9.8e-05,0.000686 ± 0.00012,2.74e-05 ± 1.2e-05
C16U A48U,0.000375 ± 9.7e-06,2.63 ± 0.15,–,7.24e-05 ± 1.5e-05,0.000181 ± 4.1e-05,0.000297 ± 3.3e-05,–
